In patent publication US6916470:

Biological target: human mpl (myeloproliferative leukemia receptor, TPO receptor) expressed on stably transfected BaF3 cells (human) (UniProt P40238)
Experiment: cell-based or functional assay

proliferation of mpl-expressing BaF3 cells (activity of the supernatant): 300000 U/ml
Substance: human thrombopoietin (TPO), expressed in COS cells from cDNA cloned from human fetal liver; used as TPO-containing COS supernatant (from UniProt P40225 22-353) (ligand)
